The text below walks through data of article PMC6356842 (Toxins, 2019).

Common to all, as to settings: both partners purified
Test [1] deals with T1, Cn2 toxin (Centruroides noxius).
T1 construct: source: purified from scorpion venom
Nature of the test: SPR. Background: SPR reads the build-up and loss of mass on a sensor chip optically.

Another test has as its target T2, Cll1 toxin (Centruroides limpidus).
T2 construct: source: purified from scorpion venom
T2 chain: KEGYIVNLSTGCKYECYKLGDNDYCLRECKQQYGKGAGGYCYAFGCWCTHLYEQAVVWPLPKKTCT
Nature of the test: SPR.

The target of a further test is T3, Cll2 toxin (Centruroides limpidus).
T3 construct: source: purified from scorpion venom
T3 chain: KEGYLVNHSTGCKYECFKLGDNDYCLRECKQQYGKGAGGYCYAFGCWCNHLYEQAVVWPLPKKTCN
Put plainly: SPR.

The target in another test is T4, Ct1a toxin (Centruroides tecomanus).
T4 construct: source: purified from scorpion venom
T4 chain: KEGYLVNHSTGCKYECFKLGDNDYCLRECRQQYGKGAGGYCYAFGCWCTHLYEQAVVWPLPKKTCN
Nature of the test: SPR.

For test [2], the target named is T5, Css2 toxin (Centruroides suffusus).
T5 construct: source: purified from scorpion venom
T5 chain: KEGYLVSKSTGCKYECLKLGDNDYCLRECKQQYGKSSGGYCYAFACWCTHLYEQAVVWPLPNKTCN

A further test addresses T6, CeII9 toxin (Centruroides elegans).
T6 construct: also called Cell9; source: purified from scorpion venom
T6 chain: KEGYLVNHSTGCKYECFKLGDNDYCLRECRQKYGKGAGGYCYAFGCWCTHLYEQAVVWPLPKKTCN

In another test the target is T7, Css4 toxin (Centruroides suffusus, UniProt P60266).
T7 construct: source: purified from scorpion venom
Put plainly: SPR.

The target of test [3] is T5, Css2 toxin. Nature of the test: SPR.
Test [4] has as its target T1, Cn2 toxin. Nature of the test: SPR. The source holds these as a separate data set.

What is called Kd is the constant that tells how readily two partners part at equilibrium. Usually koff stands for the first-order rate constant of dissociation. Lower therefore signals slow dissociation. One may read the kon as a measure of how fast the partners come together. Read a high kon as faster complex formation.

B1: scFv 10FG2 (scFv, V domains shown)
VH: QVNLRESGGGLVQPGGSLRLSCAASGFSFGSYGMHWVRQAPGKGLEWVAVISYGGGSKYYADSVKGRFTISRDNSKNTLYLQMNSLRAEDTAVYYCAKDARDCLLCSDWTFDLWGRGTLVTVSS
VL: NFMLTQPHSASGTPGQRVTISCSGSSSNIGSNTVNWYRHLPGSAPELLIGSHNQRPSGVPDRFSGSKSGTSASLAISGLQSEDEADYYCAAWDDSTLGYVFGTGTKLTVL
notes: also called 10F5; scFv 10F5
For the molecule B1, the Kd was found to be 0.7 nM in the test with Cn2 toxin [1]; 0.23 nM in the test with Cll1 toxin; 4.2 nM in the test with Cll2 toxin; 8 nM with Ct1a toxin; 2.75 nM with Css2 toxin [2]; 6.1 nM with CeII9 toxin. Moreover, the “TR (time of residence)” value with Cn2 toxin [1] turned out to be 163 min; with Cll1 toxin it was 264 min; with Cll2 toxin, 18.5 min; with Ct1a toxin, 16.7 min. The koff was found to be 0.000102 s⁻¹ with Cn2 toxin [1]; 6.3e-05 s⁻¹ in the test with Cll1 toxin; 0.0009 s⁻¹ with Cll2 toxin; 0.001 s⁻¹ with Ct1a toxin; 0.00055 s⁻¹ with Css2 toxin [2]; 0.000925 s⁻¹ with CeII9 toxin. Moreover, the kon in the test with Cn2 toxin [1] came to 150000 M⁻¹ s⁻¹; with Cll1 toxin it was 265000 M⁻¹ s⁻¹; with Cll2 toxin, 220000 M⁻¹ s⁻¹; with Ct1a toxin, 170000 M⁻¹ s⁻¹; with Css2 toxin [2] it was 195000 M⁻¹ s⁻¹; with CeII9 toxin it was 150000 M⁻¹ s⁻¹. Further, the binding result in the test with Css4 toxin is listed as “binds”.

B2: scFv 10F1 (scFv, V domains shown)
VH: QVNLRESGGGLVQPGGSLRLSCAASGFSFGSYGMHWVRQAPGKGLEWVAVISYGGGSKYYADSVKGRFTISRDNSKNTLYLQMNSLRAEDTAVYYCAKDARDCLLCADWTFDLWGRGTLVTVSS
VL: NFMLTQPHSASGTPGQRVTISCSGISSNIGSNTVNWYRHLPGSAPELLIGSHNQRPSGVPDRFSGSKSGTSASLAISGLQSEDEADYYCAAWDDSTLGYVFGTGTKLTVL
notes: VH, linker (G125 to S139), VL on one chain; numbers run through the whole scFv; 10F with A204G; source: expression vector pSyn1, purified (Ni2+-NTA, Superdex 75 gel filtration), monomer
Regarding B2, the binding result with Css2 toxin [3], with Cn2 toxin [4] and with Css4 toxin was “binds” in each case.

B3: scFv 10F4 (scFv, V domains shown)
VH: QVNLRESGGGLVQPGGSLRLSCAASGFSFGSYGMHWVRQAPGKGLEWVAVISYGGGSKYYADSVKGRFTISRDNSKNTLYLQMNSLRAEDTAVYYCAKDARDCLLCSDWNFDLWGRGTLVTVSS
VL: NFMLTQPHSASGTPGQRVTISCSGSSSNIGSNTVNWYRHLPGSAPELLIGSHNQRPSGVPDRFSGSKSGTSASLAISGLQSEDEADYYCAAWDDSTLGYVFGTGTKLTVL
With B3, the binding result in the test with Css2 toxin [3], with Cn2 toxin [4] and with Css4 toxin was “binds” in each case.

B4: scFv 10F (scFv, V domains shown)
VH: QVNLRESGGGLVQPGGSLRLSCAASGFSFGSYGMHWVRQAPGKGLEWVAVISYGGGSKYYADSVKGRFTISRDNSKNTLYLQMNSLRAEDTAVYYCAKDARDCLLCADWTFDLWGRGTLVTVSS
VL: NFMLTQPHSASGTPGQRVTISCSGISSNIGSNTVNWYRHLPGSAPELLIGSHNQRPSGVPDRFSASKSGTSASLAISGLQSEDEADYYCAAWDDSTLGYVFGTGTKLTVL
For the molecule B4, the binding result with Cn2 toxin [4] is “binds”.
